According to publication PMC11820797, “Rapid Detection of Alpha-Fetoprotein (AFP) with Lateral Flow Aptasensor”:

Target: T1, alpha-fetoprotein (AFP) (UniProt P02771 19-609)
T1 sequence: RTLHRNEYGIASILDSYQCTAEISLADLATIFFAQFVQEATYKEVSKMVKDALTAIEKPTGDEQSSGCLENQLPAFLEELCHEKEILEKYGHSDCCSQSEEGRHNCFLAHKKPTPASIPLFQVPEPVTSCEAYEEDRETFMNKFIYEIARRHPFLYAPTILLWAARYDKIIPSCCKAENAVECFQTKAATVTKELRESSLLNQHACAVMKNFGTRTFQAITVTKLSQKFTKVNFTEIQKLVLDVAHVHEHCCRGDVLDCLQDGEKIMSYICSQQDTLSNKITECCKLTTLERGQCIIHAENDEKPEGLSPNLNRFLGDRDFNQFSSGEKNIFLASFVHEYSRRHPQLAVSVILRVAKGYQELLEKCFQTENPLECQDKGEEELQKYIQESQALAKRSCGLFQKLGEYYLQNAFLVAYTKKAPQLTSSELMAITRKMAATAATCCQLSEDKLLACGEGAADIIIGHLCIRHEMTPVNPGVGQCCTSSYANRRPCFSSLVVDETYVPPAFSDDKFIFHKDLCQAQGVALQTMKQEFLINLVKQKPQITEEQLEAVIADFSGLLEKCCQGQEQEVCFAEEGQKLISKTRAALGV
Experiment: lateral flow aptamer sandwich; AP-273 as both AuNP probe and capture probe; 100 ng/mL AFP detected; LOD 10 ng/mL; Lateral flow strip, 50 uL running buffer (composition not in the material); pads pretreated with 0.05 M Tris-HCl, 2.5% Tween-20, 0.25% Triton X-100; assay pH and temperature not given
Details: label: AuNP (Det-Apt); biotin-streptavidin (Cap-Apt)

B1: AP-273 (Det-Apt / Cap-Apt) (ssDNA)
DNA: GTGACGCTCCTAACGCTGACTCAGGTGCAGTTCTCGACTCGGTCTTGATGTGGGTCCTGTCCGTCCGAACCAATC
modifications: thiol (Det-Apt) or biotin (Cap-Apt), printed at 5' end
Q: Does B1 bind?
A: Result: binds
